This note sets out measurements from IntAct's records for PubMed 11483518.

Sequences and labels used below:
B1: POU domain class 2-associating factor 1 (Homo sapiens), Q16633 (parent)
chain: MLWQKPTAPEQAPAPARPYQGVRVKEPVKELLRRKRGHASSGAAPAPTAVVLPHQPLATYTTVGPSCLDMEGSVSAVTEEAALCAGWLSQPTPATLQPLAPWTPYTEYVPHEAVSCPYSADMYVQPVCPSYTVVGPSSVLTYASPPLITNVTTRSSATPAVGPPLEGPEHQAPLTYFPWPQPLSTLPTSTLQYQPPAPALPGPQFVQLPISIPEPVLQDMEDPRRAASSLTIDKLLLEEEDSDAYALNHTLSVEGF
partner: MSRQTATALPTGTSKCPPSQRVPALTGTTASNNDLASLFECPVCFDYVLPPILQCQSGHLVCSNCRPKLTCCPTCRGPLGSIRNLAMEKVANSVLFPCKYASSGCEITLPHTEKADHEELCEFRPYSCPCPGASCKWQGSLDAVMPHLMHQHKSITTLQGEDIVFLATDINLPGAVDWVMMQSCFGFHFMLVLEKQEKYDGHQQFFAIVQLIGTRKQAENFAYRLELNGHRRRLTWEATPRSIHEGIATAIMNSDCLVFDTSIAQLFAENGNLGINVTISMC

Variants of B1 are the subject of this test. The settings on record: with siah1_human SIAH1, Q8IUQ4.
As for MLWQKPTAPEQAPAPARPYQGVRVKEPVKELLRRKRGHASSGAAPAPTAVELPHQPLATYTTVGPSCLDMEGSVSAVTEEAALCAGWLSQPTPATLQPLAPWTPYTEYVPHEAVSCPYSADMYVQPVCPSYTVVGPSSVLTYASPPLITNVTTRSSATPAVGPPLEGPEHQAPLTYFPWPQPLSTLPTSTLQYQPPAPALPGPQFVQLPISIPEPVLQDMEDPRRAASSLTIDKLLLEEEDSDAYALNHTLSVEGF [V51E], the “effect of a mutation on the interaction” value is “disrupting interaction”.
